Key:
Sgo1_(1-130) (human) = Sgo1_(1-130) (human) (UniProt Q5FBB7); experiment: ITC
Sgo1_(1-415) (human) [1] = target: Sgo1_(1-415) (human) (UniProt Q5FBB7); experiment: ITC
Sgo1_(1-415) (human) [2] = target: Sgo1_(1-415) (human) (UniProt Q5FBB7); experiment: mass photometry

Substance	Kd (Sgo1_(1-130) (human)) [µM]	Kd (Sgo1_(1-415) (human) [1]) [µM]	dH (Sgo1_(1-415) (human) [1]) [kJ/mol]	stoichiometry N (Sgo1_(1-415) (human) [1])	stoichiometry N (Sgo1_(1-415) (human) [2])
CPC_(ISB10-221) (INCENP_(1-58), Survivin and Borealin_(10-221)) (from UniProt Q9NQS7 1-58; O15392 1-142; Q53HL2 10-221) (complex)	0.163	–	–	–	–
CPC_(ISB10-280) (INCENP_(1-58), Survivin full length and Borealin_(10-280)) (from UniProt Q9NQS7 1-58; O15392 1-142; Q53HL2 10-280) (complex)	0.057	0.053	-27.5	1	–
Sgo1_(1-415) (from UniProt Q5FBB7 1-415) (domain or fragment)	–	–	–	–	2
Survivin (from UniProt O15392 1-142) (natural protein)	0.255	–	–	–	–

— article doi:10.1101/2021.08.27.457910
